Laboratory results published in article PMC6524969, “A nanobody-based molecular toolkit provides new mechanistic insight into clathrin-coat initiation” (eLife, 2019).
Each block holds one binder with its values, some of them ahead of it.

Columns and labels:
[1] = target: T1, GST-EPS15 (1-314) (human, UniProt P42566); test: pull-down; GST fusion (50 μg, or increasing amounts) immobilised on glutathione-Sepharose; Nb in clarified E. coli periplasmic extract adjusted to 125 mM sodium chloride; 4°C, 60 min; supernatant and pellet on Coomassie-stained gels; conditions: one partner purified
T1 construct: stop codon at 315 (S315*) in pGEX-5X-1; Printed molecular weight 60,924.7; also called GST-EPS15 EH1-3; source: E. coli BL21 codon plus RIL, purified (glutathione-Sepharose); not shown: GST, N-terminal, kept
T1 sequence (P42566 1-314): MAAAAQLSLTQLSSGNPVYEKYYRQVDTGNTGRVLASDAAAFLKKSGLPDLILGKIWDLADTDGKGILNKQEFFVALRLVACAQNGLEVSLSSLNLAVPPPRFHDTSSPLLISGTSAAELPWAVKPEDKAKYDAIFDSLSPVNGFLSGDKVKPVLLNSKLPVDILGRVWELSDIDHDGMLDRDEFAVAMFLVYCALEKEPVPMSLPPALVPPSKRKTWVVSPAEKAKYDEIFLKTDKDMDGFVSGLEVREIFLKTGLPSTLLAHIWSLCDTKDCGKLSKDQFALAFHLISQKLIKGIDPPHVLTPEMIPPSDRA

[2] = target: T1, GST-EPS15 (1-314); test: pull-down; quantitative titration; Nb E_142 fixed at 2 μM, immobilised GST-EPS15 (1-109) 0.5-20 μM or (1-314) 0.25-10 μM; PBS with 100 μg/ml BSA, 4°C, 60 min, 400 μl; Nb band in the supernatant quantified; apparent KD (half-maximal binding); conditions: both partners purified
[3] = target: T2, GST-EPS15 (1-109) (Homo sapiens, UniProt P42566); test: as above; conditions: both partners purified
T2 construct: stop codon L110* in pGEX-5X-1; Printed molecular weight 38,271.3; also called EH1; source: E. coli BL21 codon plus RIL, purified (glutathione-Sepharose); not shown: GST, N-terminal, kept
T2 sequence (P42566 1-109): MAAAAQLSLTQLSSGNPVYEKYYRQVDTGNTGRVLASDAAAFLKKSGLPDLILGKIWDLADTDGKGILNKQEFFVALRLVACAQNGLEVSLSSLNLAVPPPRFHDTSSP

[4] = target: T3, GST-EPS15R (1-365) (Homo sapiens, UniProt Q9UBC2); test: pull-down; GST fusion (50 μg, or increasing amounts) immobilised on glutathione-Sepharose; Nb in clarified E. coli periplasmic extract adjusted to 125 mM sodium chloride; 4°C, 60 min; supernatant and pellet on Coomassie-stained gels; conditions: one partner purified
T3 construct: Epidermal growth factor receptor substrate 15R (EPS15R, gene EPS15L1), H. sapiens, residues 1-365 (stop T366*), in pGEX-5X-1; also called EPS15R EH1R-3R; source: E. coli BL21 codon plus RIL, purified (glutathione-Sepharose)
T3 sequence (Q9UBC2 1-365): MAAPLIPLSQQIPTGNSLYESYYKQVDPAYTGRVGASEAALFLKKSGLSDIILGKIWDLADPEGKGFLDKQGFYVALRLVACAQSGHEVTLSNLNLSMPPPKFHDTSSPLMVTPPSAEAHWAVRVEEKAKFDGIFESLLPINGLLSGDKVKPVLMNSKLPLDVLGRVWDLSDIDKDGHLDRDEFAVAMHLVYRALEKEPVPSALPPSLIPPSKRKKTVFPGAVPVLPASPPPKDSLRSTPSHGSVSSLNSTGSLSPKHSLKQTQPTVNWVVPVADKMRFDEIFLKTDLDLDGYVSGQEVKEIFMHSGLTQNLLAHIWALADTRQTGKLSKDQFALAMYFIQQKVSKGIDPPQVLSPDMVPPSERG

[5] = target: T4, native Eps15 in rat brain cytosol (Rattus norvegicus (brain cytosol, …, UniProt A0A8I5YC99)); test: pull-down; called immunoprecipitation; purified His6-tagged Nb E_142 bound to Ni-NTA-agarose; K-562 cell lysate or rat brain cytosol; immunoblots; conditions: one partner purified
T4 construct: Eps15, endogenous in rat brain cytosol; source: endogenous, rat brain cytosol

[6] = target: T5, EPS15R in K-562 cell lysate (human (endogenous in K-562), UniProt Q9UBC2); test: as above; conditions: one partner purified
T5 construct: Epidermal growth factor receptor substrate 15R, endogenous in K-562 cells
T5 sequence (Q9UBC2 whole entry): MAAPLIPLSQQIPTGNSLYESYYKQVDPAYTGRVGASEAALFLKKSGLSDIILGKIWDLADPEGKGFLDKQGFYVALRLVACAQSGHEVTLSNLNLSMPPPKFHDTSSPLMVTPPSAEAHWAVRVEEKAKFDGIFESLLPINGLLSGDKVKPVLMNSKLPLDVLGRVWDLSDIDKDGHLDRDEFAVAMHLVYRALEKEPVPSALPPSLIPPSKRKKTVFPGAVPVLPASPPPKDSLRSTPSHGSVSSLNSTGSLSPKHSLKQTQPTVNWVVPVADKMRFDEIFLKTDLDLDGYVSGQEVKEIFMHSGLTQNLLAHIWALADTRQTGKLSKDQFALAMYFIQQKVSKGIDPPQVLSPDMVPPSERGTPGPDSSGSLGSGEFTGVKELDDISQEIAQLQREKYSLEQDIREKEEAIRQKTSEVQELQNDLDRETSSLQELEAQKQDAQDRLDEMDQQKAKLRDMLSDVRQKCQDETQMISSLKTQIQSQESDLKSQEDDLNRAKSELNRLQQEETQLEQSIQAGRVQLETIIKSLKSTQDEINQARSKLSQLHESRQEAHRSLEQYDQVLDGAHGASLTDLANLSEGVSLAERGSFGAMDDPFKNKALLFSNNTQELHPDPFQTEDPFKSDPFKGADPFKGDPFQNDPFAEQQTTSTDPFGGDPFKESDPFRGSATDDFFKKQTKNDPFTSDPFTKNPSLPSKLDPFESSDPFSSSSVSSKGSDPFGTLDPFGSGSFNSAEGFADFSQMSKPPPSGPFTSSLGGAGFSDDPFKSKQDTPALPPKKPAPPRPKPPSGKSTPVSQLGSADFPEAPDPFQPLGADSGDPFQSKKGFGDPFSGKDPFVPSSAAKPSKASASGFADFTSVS

[7] = target: T6, endogenous EPS15 in HeLa cells (Homo sapiens, UniProt P42566); test: immunostaining of cells or tissue; relocalisation in cells: Nb E_142 fusion tethered to endosomes (GFP-FYVE2) or mitochondria (Akap1) in transfected HeLa cells; endogenous EPS15 stained with antibodies, confocal microscopy; controls without the Nb module; conditions: partners not purified
T6 construct: Epidermal growth factor receptor substrate 15, endogenous in HeLa cells, stained with anti-EPS15 antibodies; source: endogenous, HeLa SS6 and HeLa clone #40 cells
T6 sequence (P42566 whole entry, the tested form may be a part): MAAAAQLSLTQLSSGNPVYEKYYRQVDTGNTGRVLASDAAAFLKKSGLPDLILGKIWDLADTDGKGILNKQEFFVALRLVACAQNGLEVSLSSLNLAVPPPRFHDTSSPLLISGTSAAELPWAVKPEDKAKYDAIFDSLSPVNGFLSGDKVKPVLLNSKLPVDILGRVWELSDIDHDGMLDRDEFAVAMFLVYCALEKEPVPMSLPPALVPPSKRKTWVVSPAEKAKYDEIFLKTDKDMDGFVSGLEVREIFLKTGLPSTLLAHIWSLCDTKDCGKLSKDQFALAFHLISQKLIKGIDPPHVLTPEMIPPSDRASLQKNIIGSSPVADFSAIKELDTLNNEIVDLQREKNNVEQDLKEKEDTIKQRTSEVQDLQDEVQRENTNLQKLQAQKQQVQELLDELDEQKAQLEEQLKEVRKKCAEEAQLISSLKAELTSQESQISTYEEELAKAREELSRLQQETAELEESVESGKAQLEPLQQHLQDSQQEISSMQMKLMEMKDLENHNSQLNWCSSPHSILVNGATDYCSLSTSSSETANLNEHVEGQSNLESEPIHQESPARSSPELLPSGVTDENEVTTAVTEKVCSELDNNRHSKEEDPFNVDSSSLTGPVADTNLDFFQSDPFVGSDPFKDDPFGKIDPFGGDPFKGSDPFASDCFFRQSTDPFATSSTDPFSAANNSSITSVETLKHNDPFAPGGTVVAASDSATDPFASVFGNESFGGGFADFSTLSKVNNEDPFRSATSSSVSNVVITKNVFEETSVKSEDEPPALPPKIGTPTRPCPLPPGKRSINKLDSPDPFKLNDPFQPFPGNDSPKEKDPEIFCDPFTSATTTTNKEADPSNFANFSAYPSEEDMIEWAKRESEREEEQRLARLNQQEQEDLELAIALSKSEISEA

- binding result [1]: binds
B1: Nb E_180 (VHH)
VHH: QVQLQESGGGSVQAGGSLRLSCAASGSIFSVNLMGWYREAPGKATEFVATVTAGGYTNVADSLKDRFTISMDNAKNTVYLQMNNLKPEDTAVYYCNMKSMNPFRRYDVWGQGTQVTVSS
notes: CDR3 identical to that of Nb E_142, 18 amino acid differences from Nb E_142; also called Nb E_180-His6; source: E. coli XL1-Blue (pHEN6c), periplasmic extract

- binding result [1]: binds
B2: Nb E_3 (VHH)
VHH: QVQLQESGGGLVQAGGSLRLSCAASGSIFSINAMGWYRQAPGKQRELVAAITSGGTTNYADSVKGRFTISRDNAKNTLYLQMNSLKPEDTAVYYCNLGGLRNPFGSWGQGTQVTVSS
notes: NPF tripeptide in CDR3, placed differently from that of Nb E_142; also called Nb E_3-His6; source: E. coli XL1-Blue (pHEN6c), periplasmic extract

- Kd [2]: ~2000 nM
- Kd [3]: ~3000 nM
- binding result [4]: binds
- binding result [5]: binds
- binding result [6]: binds
B3: Nb E_142 (VHH)
VHH: QVQLQESGGGLVQAGGSLRLSCAASGFISSSSTMGWYRPAPGKQRELVASISSGGTTNYAESVKGRFTISRDNAKNTVYLQMDSLKPEDTAVYYCNMKSMNPFRRYDVWGQGTQVTVSS
notes: NPF(R) tripeptide in CDR3; Printed molecular weight of Nb E_142-His6: 13,683.2; also called Nb E_142-His6; His6-tagged Nb E_142; source: E. coli XL1-Blue (pHEN6c), periplasmic extract; also purified from the periplasmic extract (Ni-NTA-agarose, Sephacryl S-100); not shown: His6, C-terminal, kept

- binding result [7]: binds
B4: GFP-FYVE2-desNb E_142 (VHH)
VHH: QVQLQESGGGLVQAGGSLRLSCAASGFISSSSTMGWYRPAPGKQRELVASISSGGTTNYAESVKGRFTIRRDNAKNTVYLQMDSLKPEDTAVYYYNMKSMNPFRRYDVWGQGTQVTVSF
notes: Four glycine residues between the second FYVE domain and the Nb; also called GFP-FYVE2-dNb E_142; 3maj conditionally destabilized Nb E_142; source: HeLa SS6, transiently transfected, in cells; not shown: GFP, N-terminal, kept; tandem FYVE domain (FYVE2), N-terminal, kept
